Measurements: patent US20170101472A1 (Regeneron, published 2017)
Positions count from the first letter of the chain named. Numbers in names are those of the source.

T1: monkey LAG3 (mfLAG3) expressed on HEK293 cells (cynomolgus monkey, UniProt P18627 24-525 (human entry))
T1 construct: also called HEK293/mfLAG3; HEK293-mfLAG3
T1 chain: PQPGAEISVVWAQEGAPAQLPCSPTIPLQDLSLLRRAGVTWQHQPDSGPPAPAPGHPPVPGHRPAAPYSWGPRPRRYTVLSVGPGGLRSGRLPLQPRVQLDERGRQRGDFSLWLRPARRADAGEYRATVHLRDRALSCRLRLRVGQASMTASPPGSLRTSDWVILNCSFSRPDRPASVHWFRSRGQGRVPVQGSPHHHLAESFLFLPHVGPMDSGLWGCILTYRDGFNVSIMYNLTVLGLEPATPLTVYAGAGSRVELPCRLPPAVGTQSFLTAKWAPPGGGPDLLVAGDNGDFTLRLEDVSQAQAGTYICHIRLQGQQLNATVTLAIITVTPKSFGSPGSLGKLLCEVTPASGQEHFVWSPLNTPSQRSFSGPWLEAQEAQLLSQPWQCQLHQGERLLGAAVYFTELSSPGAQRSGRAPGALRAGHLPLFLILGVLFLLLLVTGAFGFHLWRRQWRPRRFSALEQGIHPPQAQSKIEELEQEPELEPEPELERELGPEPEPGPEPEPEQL

T2: human LAG3 expressed on HEK293 cells (human, UniProt P18627 23-525)
T2 construct: also called hLAG3; HEK293/hLAG3
T2 sequence: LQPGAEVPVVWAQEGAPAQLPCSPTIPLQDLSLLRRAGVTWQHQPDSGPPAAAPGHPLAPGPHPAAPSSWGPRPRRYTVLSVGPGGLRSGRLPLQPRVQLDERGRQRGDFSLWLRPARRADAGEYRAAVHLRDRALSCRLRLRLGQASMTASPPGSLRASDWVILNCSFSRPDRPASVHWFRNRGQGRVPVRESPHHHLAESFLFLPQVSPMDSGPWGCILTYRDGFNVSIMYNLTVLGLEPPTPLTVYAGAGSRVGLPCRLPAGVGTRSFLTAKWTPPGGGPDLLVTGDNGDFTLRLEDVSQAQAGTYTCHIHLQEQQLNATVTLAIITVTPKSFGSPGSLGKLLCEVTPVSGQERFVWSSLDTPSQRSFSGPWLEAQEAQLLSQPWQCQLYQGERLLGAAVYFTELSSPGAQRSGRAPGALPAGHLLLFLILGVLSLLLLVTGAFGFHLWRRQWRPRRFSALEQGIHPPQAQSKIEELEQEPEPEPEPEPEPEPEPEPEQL

B1: H4H14813N (antibody, human IgG4, V domains shown)
VH: QVQLQQWGAGLLKPSETLSLTCAVYGGSFSGYYWNWIRQPPGKGLEWVGEISHRGSTNYNPSLKSRVTISLDTSKNQFSLKLTSVTAADTAVYYCSRDEELEFRFFDYWGQGTLVTVSS
VL: EIVLTQSPATLSLSPGERATLSCRASQSVSSYLAWYQQKPGQAPRLLVYGASNRATGIPARFSGSGSGTDFTLTISSLEPEDFAFYYCQQRSNWPLTFGGGTKVEIK
notes: H4H = human IgG4 Fc with S108P hinge mutation
B2: H4sH15479P (antibody, V domains shown)
VH: QVQLQQWGAGLLNPSETLSLTCAVYGGAFSDYYWNWIRQPPGKGLEWIGEINHRGSTNYNPSLKSRVTISVDTSKNQFSLRMSSVTAADAAVYYCARGEDYDIWNGYYQEKWGQGTLVTVSS
VL: B1 VL with V29I, S31T, V48I, G50D, N53K, A84V, F85V, Q89H

Tests used:
[1] = target: T1, monkey LAG3 (mfLAG3) expressed on …; assay: flow cytometry, HEK293/mfLAG3 cells; FACS on HEK293/mfLAG3 cells; MFI ratio 100 nM/0 nM
Protocol: (§1) The serially diluted antibodies were added to the cell suspension and incubated for 15-30 minutes on ice. The cells were centrifuged and pellets were washed with staining buffer to remove unbound antibodies. […] The cells were centrifuged and pellets were washed with staining buffer to remove unbound secondary F(ab′)2 and fixed overnight with a 1:1 dilution of Cytofix (BD Biosciences, #554655) and staining buffer. Following day, fixed cells were centrifuged and pellets were washed with staining buffer, resuspended and filtered. Fluorescence measurements were acquired on HyperCyt® cytometer and analyzed in ForeCyt™ (IntelliCyt; Albuquerque, N. Mex.) to determine the mean fluorescence intensities (MFI). The EC₅₀ values were calculated from a four-parameter logistic equation over an 11-point response curve using GraphPad Prism. EC₅₀ was defined as the concentration of antibody at which 50% of maximal binding signal is detected. The MFI ratio for each antibody was calculated by dividing the MFI at 100 nM by MFI at 0 nM of antibody concentration.

[2] = target: T2, human LAG3 expressed on HEK293 cells; assay: electrochemiluminescence cell binding, HEK293-hLAG3
Protocol: To investigate the ability of a panel of anti-LAG3 monoclonal antibodies to bind cell-surface expressed LAG3, an in vitro binding assay utilizing human and monkey LAG3 expressing cell lines in an electrochemiluminescence based detection platform [Meso Scale Diagnostics, Rockville, Md.—(MSD)] was developed.
Experiments were carried out according to following procedure. Cells from the three cell lines described above were rinsed once in 1×PBS buffer without Ca²⁺/Mg²⁺ followed by 10-minute incubation at 37° C. with Enzyme Free Cell Dissociation Solution. […] Approximately 10,000 cells per well in the cell-washing buffer were seeded into the 96-well carbon electrode plates (MULTI-ARRAY high bind plate, MSD) and incubated for 1 hour at 37° C. to allow the cells to adhere. Nonspecific binding sites were blocked by 2% BSA (w/v) in PBS for 1 hour at room temperature. […] The plates were then washed to remove the unbound antibodies using an AquaMax2000 plate washer (MDS Analytical Technologies). The plate-bound antibodies were detected with a SULFO-TAG™-conjugated anti-human IgG antibody (MSD) for 1 hour at room temperature. After washes, the plates were developed with the Read Buffer (MSD) according to manufacturer's recommended procedure and the luminescent signals were recorded with a SECTOR Imager 6000 (MSD) instrument. The direct binding signals (in relative light units—RLU) were analyzed as a function of the antibody concentration and the data were fitted with a sigmoidal (four-parameter logistic) dose-response model using Graph Pad Prism™ software. The potency of each antibody was determined by calculating EC₅₀.

[3] = target: T1, monkey LAG3 (mfLAG3) expressed on …; assay: flow cytometry, HEK293/mfLAG3 cells; FACS on HEK293/mfLAG3 cells
Protocol: as §1

Row | Binder | Ratio of MFI (100 nM/0 nM) [1] | EC50 [2] [nM] | EC50 [3] [nM]
1 | B1 | 17.1 | 19.9 | 1.42
2 | B2 | 20.7 | 13.4 | 0.902
